Assay results reported in paper PMC3896448 (2014).
Residue numbers refer to the chain shown, from its start. Blank lines part the entries; values can stand above or below the binder they belong to.

What was measured:
hen egg-white lysozyme [1] = biological target: T1, hen egg-white lysozyme (hen (egg-white), UniProt P00698 19-147); experiment: SPR
hen egg-white lysozyme [2] = biological target: T1, hen egg-white lysozyme

T1 sequence (P00698 19-147): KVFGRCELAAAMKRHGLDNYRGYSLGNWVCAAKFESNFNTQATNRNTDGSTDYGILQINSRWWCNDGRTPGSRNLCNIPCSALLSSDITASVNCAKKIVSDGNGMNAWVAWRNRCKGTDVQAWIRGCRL

B3: OBody AM1L200 (designed binder)
chain: VYPKKTHWTAEITPNLHGTEVVVAGWVAHLGDYGRVMIVKVSDREGGAAVPVYLERGKTPDHLFKVFAELSREDVVVIKGIVEASKQYGSDTGVEIFPSEIWILNKAKPLPID
Kd (hen egg-white lysozyme [2]): 1200 nM

B4: OBody AM1L10 (designed binder)
chain: AMGSVYPKKTHWTAEITPNLHGTEVVVAGWVASLGDYGRVKIVKVSDREGGAAVSVYLEYGKTPDHLFKVFAELSREDVVVIKGIVEASKAAADMHNGVEIFPSEIWILNKAK
Kd (hen egg-white lysozyme [2]): 4600 nM

More lines, now with the values ahead:

koff (hen egg-white lysozyme [1]): 0.0256 s⁻¹
B1: OBody AM3L15 (designed binder)
chain: B3 chain with Y2S, T19S, M37K, S85G, K86W, Q87P, Y88V, G89A, S90L

koff (hen egg-white lysozyme [1]): 0.00249 s⁻¹
B2: OBody AM3L09 (designed binder)
chain: B3 chain with Y2S, T19S, M37K, S85T, K86T, Q87V, Y88T, G89R, S90W
